Source: patent US20240150445A1 (DUKE UNIVERSITY, published 2024)

Molecular target: Env 10.17 gp120 (HIV-1)
Assay: direct-binding ELISA (OD450) on CH848.d0949.10.17 gp120 [panel A]

B1: DH270.IA4 (antibody, V domains shown)
VH: QVQLVQSGAEVKKPGASVKVSCKASGYTFTDYYIHWVRQAPGQGLEWMGWINPNTGRTNYAQKFQGRVTMTRDTSISTAYMELSRLRSDDTAVYYCARGGWIGLYYDSSGYPNFDYWGQGTLVTVSS
VL: QSALTQPASVSGSPGQSITISCTGTSYDVGSYNLVSWYQQHPGKAPKLMIYEVSKRPSGVSNRFSGSKSGNTASLTISGLQAEDEADYYCCSYAGSSTVIFGGGTKLTVL
notes: Inferred intermediate, recombinant IgG; also called DH270.I4
Question: For B1, which “EC50 (read off the curve)” value is on record?
Answer: Its value is ~2 µg/mL.
